Assay results as given in a protein production outcome set (Wang et al. 2014).

Experiment: label from the status in PepcDB records
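Further: failed if final PepcDB status was selected cloned or expressed and not failed if soluble or beyond.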

| Sequence | protein production |
| --- | --- |
| MEKNVSQVTAQEETALKARGYNEDLLPSSPKQRTMGARNFFTLWMGSIHNIPNYAAVGGFIFLGLSPLQVMLAVVLSSFIVATFMNLNGVAGSKYGIPFAMHLQSTYGSLGAKLPGFLRGCVAAIAWFGLQTFTGSLALLIILGKFWPNFLEIGGSFQFFGLRLPELMAFTLFWLLNVAIGFGGSKILNRFTAILSPLIYVVIIGLTIWAIRAGGGLTPILSYQVSGAIRSVNPLVAYLIIFNSVVAVWSAPGASVADFTKNARSTRAQVVGQTTGLVVGYGIFAFSSVVILLGGSLYFGIQEWNILNIIDRLDNVAVVVLAMSVFLLTTISTNATGNIIPAGYQLAALFPKKMTYKKGVMIASVISFLIMPWKLMENADSIFIFLNAIGAVLGPVAGVMIANYYFVQKQQIDLNALYVDKHKKEEANPFYGLNKPAYVATILALVLSLSGQFIPQVKIIADISWFVGFATGFVLYLVLKKWTWDSKKVKETAYQEGK | failed |
| PCYENKFAPRCARCSKTLTQGGVTYRDQPWHRECLVCTGCQTPLAGQQFTSRDEDPYCVACFGELFA | not failed |
| MLRLYKTIGRFNLINFQEDYPMKILVVGTGAREHAICSALADEATIYSVMGNRNPGISRLAGNSLLLLKLTPKVVRFASEKGVDMAFIGPEAHLEAGLVDALEEAGIPSVGPTRDAARIETDKSFMRKLFEDYRIPGSITYRVFSDPEELREFMEDFDSEAVVKPVGLTGGKGVKIVGEHLRDNMEALKYATEVIEKRIGGHPSVVIEERVVGEEFTVQAFSDGEHIVPMPAVQDHPHAYEGDQGPITGGMGSYSDSDGLLPFLTQKDYEDAVEIMQRTVDAIRKETGPYRGILYGQFMLSADGPKLIEYNARFGDPEAMNVLPLLESSMLEICEGIVDGNLKSASFMNLATVCKYLVPEGYPESGVAGAEIKVDEKKIEDMGVITYYAAVNQEDDHIYTSSSRALALVAPADDIYSAEELCEEATAHVKGRLYHRRDIGTRELVEKRIKHMEDLRS | failed |
| MNDFKNQWLRKRTFAIPASRLTGRLTTLKSDVPAADSLFWKLWNGSLDTAVQVLQTDYFKGIAAGTLDPNAYGSLMVQDGYYCFRGRDDYATAATCAQDETLREFFKAKAKSYDEYNETYHQTWHLREASGLIPGTDIKDYADYEAYVAGSLASPYMCVVMLPCEYLWPWIANFLDGYTPTNSLYRFWIEWNGGTPNGAYQMGNMLEQYRDKIDEDKAVEIFNTAMNYELKVFTSSTILTTIENGK | not failed |
| MNYASNTFELIAKEWLQMKDWAEITKTRRLDMLERVVFPAIGKLPVREITPHHILKILQETAKRGAPTVAAEARRTISSVFELAVATLRADSDPVWPVRKALPANKTQHLEHHHHHH | not failed |
| MIITIPIKNQKDIGTPSDSVVVLGYFDGIHKGHQELFRVANKAARKDLLPIVVMTFNESPKIALEPYHPDLFLHILNPAERERKLKREGVEELYLLDFSSQFASLTAQEFFATYIKAMNAKIIVAGFDYTFGSDKKTAEDLKNYFDGEVIIVPPVEDEKGKISSTRIRQAILDGNVKEAGKLLGAPLPSRGMVVHGNARGRTIGYPTANLVLLDRTYMPADGVYVVDVEIQRQKYRAMASVGKNVTFDGEEARFEVNIFDFNQDIYGETVMVYWLDRIRDMTKFDSVDQLVDQLKADEEVTRNWS | not failed |
| MNSRAADQLELDGLPGTPPDFYRERQRSRVERYQSPAGAPLQCSVQVQTTQEHPLWTSHVWSGARALADTLCWQPELIAGKTVCELGAGAGLVSIVAFLAGADQVVATDYPDPEILNSLESNIREHTANSCSSETVKRASPKVVPYRWGDSPDSLQRCTGLQRFQVVLLADLLSFHQAHDALLRSVKMLLALPANDPTAVALVTFTHHRPHLAERDLAFFRLVNADGALIAEPWLSPLQMDPMFPDDPGDVCIRGQVHRWRLRWRSAASASANIPAHARNE | not failed |
| MVIQIVIISPGDGNLSPAHLLHRFALSLLESLRGKKMMFVGTEEMYLSLICLLHSQIPENYKSMDYLWITHRLLSQDLEILVDYNAMIEFYWAPFLLESNSDNAIVDIVSDRIMRKGLINKHGKHWRGADIVVESSFKDGNKRIVEMESEDAYLMTMGKWVKKSMDPLRTKVFFSTMSPTHYKIEDWGGEQGKNFYNQTTPIQDMNHWPSDCSKTLMKVIGEELDQRADFLVTVLNITQLTSYRKDAHTSIYKKPWSPYDEGSASKSG | failed |
| QVKRQTRRVASATYMVSLLDSQIDSPATLFIDEQALEAAKRRSYQRGVLEGSEMSRVFSWMRPNDLIWTYWINNYLLGKSPPPFDILYWNNDTTRLPAALHGDLLDFFKHNPLSHAGGLEVCGTPIDLQKVTVDSFSVAGINDHITPWDSVYRSTLLLGGDRRFVLANSGHVQSILNP | not failed |
| MEFQSTVVATVDCQKQVRSWRLLRSFIQLLIPTCNCTLVQELEQDNTNLRGKKLYNDIKSRTSSFRSSSSLSSSTVTGTIFGYRKGKINFCIQTPRKSTNLDLLLELAVPTTVLAREMREGALRIVLERNNEKQDDDSFLSKPFWNMYCNGKRVGYARKRSPSQDDMTALTALSKVVVGAGVVTGKELGRFDDELMYLRASFRRVNGSKESESFHLIDPAGNIGQELSIFIVPSSV | failed |
| MSFEAFTELYIRDVKNRLKENTWLTKEHIIRTKILPFFGKLKISEISTKEIITWQNEMLAYRDEKKKPYSQTYLKTLHNQLSAIFNHAVRYYELRSNPAAKVGNMGSELEHHHHHH | not failed |
| MIVNEPVPDTFEDTPAKDRDPDWFKRAVFYEVLVRSFQDSNGDGIGDLKGLTAKLDYLQWLGVDCLWLPPFFKSPLRDGGYDVSDYTAVLPEFGDLADFVEFVDAAHQRGMRVIIDFVMNHTSDQHPWFQESRRNPDGPYGDYYVWADDDKQFQDARIIFVDTEASNWTYDPVRKQYYWHRFFSHQPDLNYENPVVQEEMISALKFWLDLGIDGFRLDAVPYLYQEEGTNCENLPRTHDFLKRVRKEIDAQYPDTVVLAEANQWPEDVVDYFGDYAAGGDECHMAFHFPVMPRIFMAVRRESRYPVSEILAKTPAIPSGCQWGIFLRNHDELTLEMVTDEERDYMYAEYAKDPRMRANIGIRRRLAPLLDNDRNQIELFTALLLSLPGSPILYYGDEIGMGDNIWLGDRDAVRTPMQWTPDRNAGFSSSDPGRLFLPTIMDPVHGYQVTNVEASMASPSSLLHWTRRMIEIRKQNVAFGLGTYTELPSSNPAVLAFLREHEDDLVLCVHNFSRFAQPTELDLSAFDGRHPVELFGGVRFPAVGDLPYLLTLGGHGFYWFRLRKDAA | failed |
| MKQIVAGIVAHVDAGKTTLSEALLYRTGEIRKLGRVDHGDAFLDTNSLEKARGITIFAHQALVEHGDLRLTLLDTPGHVDFAAETERVLRVLDYAILVVSGTDGVQGHTETLWRLLARYGVPTFIFVNKCDAAGFAREAILAQLRKRLSDAIYPLPAMEQFTEGSAVPLDAFAEDIATLDEEAMNDYLEHGVLSVGRLRSMIAVRELFPVYFGSALKLEGVEEFLDGLETFTREREWPAAFAARVFKIAHDGQHNRMTWLRVTGGALKAKEIVSSSSCAAASTPSPAQEDDGMAWSEKVDQVRIYNGAKFETVTEVPAGSVCAVTGLTRTFPGEGLGAEPDAESPSLQPVLTYTVLPAGAESDTAGTSGAAKRGGTGHDSVNRDDAEHDAAKSETGRNEENDTAGQDAETDNSSPALPQFDDLTLHKVITALRELEDEDPLLHVVWVERLAEIHVQLMGTVQLEIIQQTLHDRFGLDVSFGPGSILYRETITAPVEGAGHFEPLRHYAEAHILLEPGEPGSGVTVGSALSENDLDRNWQRLILTHLTEREHLGVLVGAPLTDIKMTLVAGRAHLKHTEGGDFRQATYRAIRQGLMEARAGVSGRPETPVESRPDTTGEGNCRLLEPWYRFRLEVPADMIGRAMSDIQRMAGTFESPVTDGEYAVIEGEAPVSEMRDYAMDVNQYTHGHGHFSATFGGYKPCHDAKQVIAAAAYDPEADLDNTPDSVFCAHGAGYPVKWYKVPEFAHVDYVM | failed |
| MNTPSRTHLVIIPSYNPGPKVYETVQAARRYWNPVWVVVDGSTDGTWEGLLKLSAEDSGLVVLGMPANRGKGAAVLRGLLTSRRKGFTHALVMDSDGQHPADRIPEFMARSQEEPDAMILGVPVFDDSAPSLRVKGRRISNWWANLETLWCGIGDSLFGFGVYPIQALCVIMQDHQWMRRFDFDPEAAVRLCWAGIRPVNLPVPVYYPKPEEGGTSHFHYWRDNALLTWMHVRLMFGFLARLPILLARIVRRPEILEHHHHHH | failed |
| MSDSPRPSSRPDFWDVRYERDRHLFGAEPNAFVKAEAHRLPPESEVVEVGAGEGRTAAWLAREHGHRVTAVDFSETALKTAQERAEAEHLRLDTVRADVRTWRPDRQWDAAVVTFLQLLPDERPRLYRLLKNSVRSGGWLLAEWLRPAHLTGPYDRMGPSRADRMVPVDEVRRAFADEHLASVEAVDVHLQEGPHLTGDAAVVRGIVQAGAS | failed |
